# Values quoted from earlier work, collected in publication PMC9974451.
# Molecular target: Ubc9 (Homo sapiens) (UniProt P63279)
# Assay: differential scanning fluorometry
# Ubc9 (Homo sapiens), sequence (P63279 2-158): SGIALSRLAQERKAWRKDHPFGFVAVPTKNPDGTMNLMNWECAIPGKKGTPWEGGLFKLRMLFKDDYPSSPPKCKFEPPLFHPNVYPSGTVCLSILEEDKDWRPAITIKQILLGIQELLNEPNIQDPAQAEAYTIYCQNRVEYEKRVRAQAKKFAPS
# importin 13, sequence (O94829 whole entry): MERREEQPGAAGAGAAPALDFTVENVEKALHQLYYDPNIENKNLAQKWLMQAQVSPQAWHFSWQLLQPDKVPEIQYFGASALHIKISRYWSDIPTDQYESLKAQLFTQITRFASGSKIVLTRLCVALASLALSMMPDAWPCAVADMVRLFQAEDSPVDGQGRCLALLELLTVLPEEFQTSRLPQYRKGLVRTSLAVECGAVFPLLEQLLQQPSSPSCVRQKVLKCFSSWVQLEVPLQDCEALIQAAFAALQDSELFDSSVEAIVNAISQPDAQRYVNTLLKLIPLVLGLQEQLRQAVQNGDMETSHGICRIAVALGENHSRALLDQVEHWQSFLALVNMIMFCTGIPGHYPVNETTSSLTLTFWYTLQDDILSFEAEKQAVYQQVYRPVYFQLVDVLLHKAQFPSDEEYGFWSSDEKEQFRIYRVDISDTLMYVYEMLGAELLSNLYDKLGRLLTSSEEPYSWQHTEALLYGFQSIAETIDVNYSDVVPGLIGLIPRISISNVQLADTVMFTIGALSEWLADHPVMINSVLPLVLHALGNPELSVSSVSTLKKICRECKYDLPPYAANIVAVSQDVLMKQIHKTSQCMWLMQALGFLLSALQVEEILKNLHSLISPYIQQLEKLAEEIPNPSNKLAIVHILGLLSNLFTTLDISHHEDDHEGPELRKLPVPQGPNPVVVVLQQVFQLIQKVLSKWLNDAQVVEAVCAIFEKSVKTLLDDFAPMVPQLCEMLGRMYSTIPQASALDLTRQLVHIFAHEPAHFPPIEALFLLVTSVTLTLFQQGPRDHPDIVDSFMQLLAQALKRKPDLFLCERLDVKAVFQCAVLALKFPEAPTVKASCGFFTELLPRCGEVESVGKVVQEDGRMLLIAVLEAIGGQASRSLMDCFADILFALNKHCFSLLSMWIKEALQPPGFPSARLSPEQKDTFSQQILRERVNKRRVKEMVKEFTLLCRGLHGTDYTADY
substance,measurement,value
importin 13 (from UniProt O94829),Kd,370 nM
